Reference: US20240392013A1, “IL1RAP ANTIBODIES AND USES THEREOF” (STELEXIS THERAPEUTICS, LLC, priority 2021, published 2024)

Tests used:
[1] = tested on: IL36-induced downstream signaling (phospho-ERK, AKT, p38, NFκB) in HPAC, CAL33, 5637 cells; assay: IL36 signaling in solid tumor cancer cells, Western blot; type: cell-based; details: IL36γ, antibody 20 μg/ml
Experimental: AML patient samples or cancer cells (AML, chronic myelogenous leukemia (CML), pancreatic, head and neck squamous cell carcinoma (HNSCC), bladder, non-small-cell lung carcinoma (NSCLC), colorectal and triple-negative breast cancer (TNBC)) were seeded in 6-well plates (5×10^5 cells/well) and incubated overnight at 37° C./5% CO2 in humified incubator. In experiments conducted in cancer cell lines, cells were washed 2× with PBS and serum-starved for 3 hours. Following, cells were treated with IL1RAP antibodies at concentration of 20 μg/ml and incubated for 1 h at 37° C./5% CO2 in humidified incubator. After 1 h, cells were treated with IL1β (Invivogen, cat: rcyec-hil1b), IL33 (Adipogen, cat: AG-40B-0160-C010) or IL36 cytokines (R@D, cat: 6836IL) at 100 ng/ml and incubated for 15 more minutes. Cells were harvested on ice after 1× wash with cold PBS and were centrifuged for 5 minutes at 5000 rpm at 4° C. Cells were then lysed with NP-40 buffer for 5 minutes on ice and centrifuged for 15 minutes at 15000 rpm at 4° C. Supernatants were collected and protein concentrations were determined by BCA (Thermofisher, Cat #PI23225). […] After 3× washes, ECL was applied (Thermofisher, Cat #32106) and proteins were detected after exposure to autoradioraphic films (Worldwide medical products, Cat #41101001) and protein intensity was quantitated using ImageJ software.

[2] = tested on: AML cells (THP-1); assay: Proliferation of AML cells (THP-1), Cell-Titer Glo; type: cell-based, human; details: 66 nM, 4 days
Experimental: AML patient samples or cancer cells (AML and CML) were plated at density of 3×10^3 cells/well in two 96-well plates and incubated overnight at 37° C./5% CO2 in humidified incubator. The next day (Day 1) cells in one of the plates were treated with IL1RAP antibody at 10-150 μg/ml at a total volume of 100 μl. Plates were kept at 37° C./5% CO2 in humified for 3-6 days. Cells treated with vehicle or IgG served as controls and every treatment was conducted in triplicates. The second plate was treated on Day 1 with media and cell proliferation was measured on the same day by CellTiter-Glo (Promega, Cat #G7572). In more details, wells were mixed with equal volume (100 μl) of CellTiter-Glo and agitated for 2 minutes followed by 10 minutes incubation at room temperature in the dark. Luminescence signal was measured in Cytation™ (Biotek) plate reader. After 3-6 days, cell proliferation in the […] plates was measured separately in the same way.

[3] = tested on: healthy control samples; assay: Clonogenic capacity of healthy control samples; type: cell-based, human; details: 333 nM, two weeks
Experimental: AML patient samples or healthy control samples (4000 cells) were washed and resuspended in 30 μl Iscove's Modified Dulbecco's Medium (IMDM) media supplemented with 2% FBS. Cells […] were mixed with 3 ml methylcellulose (MthoCult H4034 Optimum) supplemented with pen/strep or primocin (100 μg/ml) and IL1RAP antibodies (333 nM) and 1 ml were seeded in 35 mm dishes in duplicates. The dishes were incubated at 37° C./5% CO2 in humidified incubator for 14-16 days. Colonies were counted using inverted microscope.

[4] = tested on: IL36γ-induced NFκB activity; assay: HEKBlue-IL36 cell-based reporter assay; details: HEKBlue-IL36, FIG. 22
Experimental: Inhibition by STLX2012 was measured by the HEKBlue-IL36 cell-based reporter assay. The HEK-Blue IL36 (Invivogen, Cat #hil36r-hkb) cell line was used to monitor NFκB activity upon stimulation with IL36γ cytokine. In this cell line, the secreted embryonic alkaline phosphatase reporter gene (SEAP) is inducibly expressed under the control of IFN-β minimal promoter fused to NFκB/AP-1. Specificity to IL36γ cytokine was achieved by blockage of TNF-α and IL1 response. Cells are maintained in the presence of zeocin (100 μg/ml) and blasticidin (10 μg/ml).

[5] = tested on: THP-1 cells; assay: Jurkat-Lucia NFAT-CD16 ADCC reporter assay against THP-1 cells; type: cell-based, human; details: THP-1 target cells
Description: (§1) Methods: ADCC activity is mediated through binding of NK cell's CD16 receptors to the Fc region of antibodies. A Jurkat-Lucia NFAT-CD16 ADCC Reporter cell assay (Invivogen, Cat #jktl-nfat-cd16; https://www.invivogen.com/jurkat-lucia-nfat-adcc-adcp-cells) was used to analyze IL1RAP mAb STLX2012 for ADCC activity. Briefly, the Jurkat cell line was engineered to express the cell surface Fc receptor CD16A (FcγRIIIA) and the Lucia luciferase reporter gene. ADCC is triggered by CD16A cross-linking upon antigen-bound antibody binding at the surface of immune effector cells. Cells are maintained in the presence of zeocin (100 μg/ml) and blasticidin (10 μg/ml).

[6] = tested on: SK-MEL-5 cells; assay: Jurkat-Lucia NFAT-CD16 ADCC reporter assay against SK-MEL-5 cells; type: cell-based; details: SK-MEL-5 target cells
Description: as §1
The STLX2012-DLE antibody was then analyzed for ADCC activity using the Jurkat-Lucia NFAT-CD16 ADCC Reporter cell assay, described in Example 11 above.

[7] = tested on: AML patient-derived samples; assay: Colony formation of AML patient-derived samples, alone or with Azacitidine or Venetoclax; type: cell-based, human; details: 2 weeks
Experimental: Methods: Clonogenicity of AML patient-derived samples were assayed using STLX2012 alone or in combination with Azacitindine (Aza) or Venetoclax (Ven). AML patient-derived samples were plated in MethoCult media and cultured in the presence of STLX2012 (50 μg/mL) or control IgG1 antibody (50 μg/mL), plus or minus Azacitidine (100 nM) or Venetoclax (100 nM), for 2 weeks. Colony numbers were counted manually using an inverted microscope and normalized to the control IgG1 control.

B1: 74804_12A21B: anti-IL1RAP mAb; VH SEQ ID NO:6, VL SEQ ID NO:23, κ light chain (antibody, V domains shown)
VH: QVQLLQSGAEVKKPGSSVKVSCKASGGTFSIYAIDWVRQAPGQGLEWMGGIIPIFGTANSAQKFQGRVTITADKSTSTAYMELSSLRSEDTAVYYCARNGATSDAFDMWGQGTMVTVSS
VL: EIVLTQSPGTLSLSPGERATLSCRASLSVSSNYLAWFQQRPGQAPRLLIHGVSRRATGIPDRFSGSGSGTDFTLTISRLEPEDFAVYYCQQYGSSPLTFGGGTKVEIK
modifications: 74804_12A21B VH and 74804_29D13A VH; 74804_12A21B VL
B1 was tested, and the “Inhibition of IL36 signaling (phosphorylation of ERK, AKT, p38 and NFκB)” value [1] was “Inhibition of IL36 signaling in solid tumor cancer cells”, the “Inhibition of cell proliferation” value [2] was “inhibited cell proliferation” and the “Effect on clonogenic capacity of healthy control samples” value [3] was “did not affect the clonogenic capacity of healthy control samples”. For the same molecule, the “Inhibition of IL36γ-induced NFκB activity” value [4] was “inhibition of the IL36γ-induced NFκB activity in a dose-dependent manner”, the “ADCC activity (reporter)” value [5] was “showed ADCC activity” and the “ADCC activity (reporter)” value [6] was “showed ADCC activity”. For the same molecule, the “Colony numbers, combined with Azacitidine” value ([7]; STLX2012 50 μg/mL + Azacitidine 100 nM) was “Further reduction in colony numbers”, the “Colony numbers, combined with Venetoclax” value ([7]; STLX2012 50 μg/mL + Venetoclax 100 nM) was “Further reduction in colony numbers” and the Colony numbers ([7]; STLX2012 50 μg/mL alone, vs control IgG1) was “decreased colony numbers in AML patient samples”.
